One substance from paper doi:10.1101/2022.05.28.493848 can be followed below.

The assay addresses Porcine skeletal muscle α-actin, filamentous (porcine) (UniProt P68137).

On to “MyoB-MLC-B CaMLD complex, purified (from UniProt Q8I465 1-801; Q8III1 1-652)”, for which the coupling efficiency (kcat/Kapp) of the actin-activated ATPase was found to be 9.
